Patent publication US20120283194, “Inhibitors of Atypical Protein Kinase C and Their Use in Treating Hedgehog Pathway-Dependent Cancers” (published 2012)

How the values were obtained:
[1] = target: Gli1 (Homo sapiens, UniProt P08151 P08151:1-1106); assay: EMSA; Zn, Mg, poly(dI-dC)-type competitor, room temperature; binding reduced by PSI during translation and rescued by recombinant aPKC; over-phosphorylation disrupts; conditions: tags: V5/HIS, rabbit reticulocyte lysate (Promega)
Description: (§1) Electrophoretic mobility shift assay performed by incubation of 50 fmol double-stranded radiolabeled Gli1 oligos (5′ […] 3′ (SEQ IF NO:5)) in binding buffer ([…] pH 7.5, mM KCl, 2.5 mM MgCl2, 1 mM DTT, 10% glycerol, 25 uM poly(dO-dC), 5 uM ZnSO₄) with IVT Gli1:V5/HIS lysate for 10 min at room temperature. 2 pmol unlabeled Gli1 oligos or Gli1 mutant oligos (5′ […] 3′ (SEQ ID NO:6)) used as competition. Endogenous aPKC inhibited in reticulocyte lysate with PSI during translation reaction and rescue performed by adding recombinant HIS:aPKC for 15 min before addition of radiolabeled Gli1 oligos. Samples were resolved on 6% acrylamide gel and exposed to a phosphor screen (Molecular Dynamics) and imaged with GE Typhoon 9410.
(§2) We asked whether phosphorylated Gli1 affects the mobility of radiolabeled Gli1 target DNA in an electrophoretic mobility assay.

[2] = target: T1, aPKC (HIS:aPKC) (UniProt P41743 P41743:1-596); assay: EMSA; aPKC alone did not bind; conditions: tags: HIS, Abcam
T1 sequence: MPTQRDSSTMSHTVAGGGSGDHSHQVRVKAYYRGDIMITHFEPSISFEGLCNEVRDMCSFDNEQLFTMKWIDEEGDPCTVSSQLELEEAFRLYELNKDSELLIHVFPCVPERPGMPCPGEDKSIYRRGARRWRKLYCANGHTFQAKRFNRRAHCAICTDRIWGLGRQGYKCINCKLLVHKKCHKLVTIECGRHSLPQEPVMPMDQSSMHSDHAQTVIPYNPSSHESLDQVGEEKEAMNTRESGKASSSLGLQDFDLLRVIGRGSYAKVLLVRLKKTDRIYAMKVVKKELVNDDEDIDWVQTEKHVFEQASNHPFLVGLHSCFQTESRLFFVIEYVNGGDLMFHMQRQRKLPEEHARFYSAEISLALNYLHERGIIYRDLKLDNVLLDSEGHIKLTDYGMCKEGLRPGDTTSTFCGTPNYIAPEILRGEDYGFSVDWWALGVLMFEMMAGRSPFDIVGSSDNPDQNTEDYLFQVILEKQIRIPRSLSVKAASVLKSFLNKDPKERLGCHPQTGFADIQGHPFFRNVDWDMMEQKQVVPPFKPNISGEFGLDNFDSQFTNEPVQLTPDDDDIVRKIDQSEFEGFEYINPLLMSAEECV
Description: as §1, §2

Gli1, sequence (P08151 whole entry, one chain of several): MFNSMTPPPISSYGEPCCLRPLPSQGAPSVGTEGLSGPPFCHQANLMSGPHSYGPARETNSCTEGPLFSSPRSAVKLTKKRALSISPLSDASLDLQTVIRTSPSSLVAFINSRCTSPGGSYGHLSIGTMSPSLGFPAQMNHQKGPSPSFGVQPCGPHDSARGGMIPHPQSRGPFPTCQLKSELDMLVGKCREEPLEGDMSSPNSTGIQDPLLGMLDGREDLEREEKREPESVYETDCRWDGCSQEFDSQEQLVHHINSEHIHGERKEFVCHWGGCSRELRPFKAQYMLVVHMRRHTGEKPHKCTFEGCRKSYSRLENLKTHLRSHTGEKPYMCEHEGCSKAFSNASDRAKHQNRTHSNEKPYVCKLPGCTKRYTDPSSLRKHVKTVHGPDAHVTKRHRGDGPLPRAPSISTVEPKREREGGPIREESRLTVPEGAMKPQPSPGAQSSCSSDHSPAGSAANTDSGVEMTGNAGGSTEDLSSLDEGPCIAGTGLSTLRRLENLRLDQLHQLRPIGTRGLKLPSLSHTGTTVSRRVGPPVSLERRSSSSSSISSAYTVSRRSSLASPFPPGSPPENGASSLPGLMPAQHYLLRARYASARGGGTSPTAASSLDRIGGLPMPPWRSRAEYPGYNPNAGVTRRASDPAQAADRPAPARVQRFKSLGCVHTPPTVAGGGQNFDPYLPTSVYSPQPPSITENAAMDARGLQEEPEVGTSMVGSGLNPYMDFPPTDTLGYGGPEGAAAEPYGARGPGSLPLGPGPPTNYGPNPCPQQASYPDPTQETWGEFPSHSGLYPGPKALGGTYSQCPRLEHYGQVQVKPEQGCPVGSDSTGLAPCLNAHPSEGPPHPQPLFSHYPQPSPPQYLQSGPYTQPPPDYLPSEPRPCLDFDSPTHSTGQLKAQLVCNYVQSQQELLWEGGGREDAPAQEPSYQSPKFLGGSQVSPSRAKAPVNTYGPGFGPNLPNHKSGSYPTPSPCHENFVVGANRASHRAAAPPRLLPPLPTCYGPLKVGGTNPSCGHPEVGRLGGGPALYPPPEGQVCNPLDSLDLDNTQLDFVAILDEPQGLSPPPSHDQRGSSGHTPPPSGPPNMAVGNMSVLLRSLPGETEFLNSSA

B1: Gli1 target oligo (dsDNA)
DNA 1: AGCCCGGACCACCCACGAGAA
DNA 2: TTCTCGTGGGTGGTCCGGGCT
- binding result [1]: binds
- binding result [2]: no binding
